Laboratory results from patent US20120156198A1 (Hoffmann-La Roche, published 2012).

Tests used:
[1] = molecular target: T1, rhIL-1R3/hFc (R&D Systems, Cat. No. 676-CP) (human, UniProt Q9NPH3 21-359, limits assumed); experiment: ELISA, hFc fusion protein captured on anti-human Fc
T1 construct: Bought; not shown: human Fc (hFc) of the commercial protein
T1 sequence (looked up): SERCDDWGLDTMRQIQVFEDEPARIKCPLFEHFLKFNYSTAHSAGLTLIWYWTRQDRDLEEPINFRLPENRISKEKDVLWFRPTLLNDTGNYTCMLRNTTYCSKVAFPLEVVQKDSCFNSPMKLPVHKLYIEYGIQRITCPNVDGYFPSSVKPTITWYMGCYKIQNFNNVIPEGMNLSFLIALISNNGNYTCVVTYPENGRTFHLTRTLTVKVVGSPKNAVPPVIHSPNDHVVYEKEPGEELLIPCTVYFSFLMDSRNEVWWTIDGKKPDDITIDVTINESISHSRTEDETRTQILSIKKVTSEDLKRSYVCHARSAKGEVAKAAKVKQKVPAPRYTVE
Procedure: (§1) The test was performed on 384-well microtiter plates (MaxiSorp™, Thermo Scientific Nunc, DK, Cat. No. 464718) at RT. After each incubation step, plates were washed 3 times with PBST. At the beginning, plates were coated with 0.5 μg/ml goat anti-human IgG Fc fragment (Jackson 1 mm. Res., US, Cat. No. 109-006-170) for at least 2 hours (h). Thereafter the wells were blocked with PBS supplemented with 0.2% Tween®-20 and 2% BSA (Roche Diagnostics GmbH, DE) for 1 h. 0.2 μg/ml of recombinant human IL-18Rα-Fc fusion protein (R&D Systems, UK, Cat. No. 816-LR) was captured on plate for 1 h. For testing the binding of antibodies to other proteins of the IL-1 receptor family 0.2 μg/ml of the following recombinant human proteins conjugated to human Fc (hFc) were captured: [0194] rhIL-1RI/hFc (R&D Systems, UK, Cat. No. 269-1R) [0195] rhIL-1sRII/hFc (R&D Systems, UK, Cat. No. 263-2R) [0196] rhIL-1R3/hFc (R&D Systems, UK, Cat. No. 676-CP) [0197] rhIL-2Rα/hFc (R&D Systems, UK, Cat. No. 1020-RL) [0198] rhIL-7Rα/hFc (R&D Systems, UK, Cat. No. 306-IR) [0199] rhIL-15R/hFc (R&D Systems, UK, Cat. No. 147-IR) [0200] rhST-2/hFc (R&D Systems, UK, Cat. No. 523-ST)
(§2) After washing the plate, dilutions of purified antibodies in PBS with 0.05% BSA and 0.2% Tween®-20 were incubated with the receptor proteins for 1 h. Binding of antibodies was detected with 1:2000 diluted horseradish peroxidase (HRP)-conjugates of anti-mouse IgG (GE Healthcare, UK, Cat. No. NA9310V). After 1 h the plates were washed 6 times with PBST and developed with freshly prepared BM Blue® POD substrate solution (BM Blue®: 3,3″-5,5″-Tetramethylbenzidine, Roche Diagnostics GmbH, DE, Cat. No. 11484281001) for 30 minutes at RT. Absorbance was measured at 370 nm. The values were corrected for the control without antibody.

[2] = molecular target: T2, rhIL-2Rα/hFc (R&D Systems, Cat. No. 1020-RL) (human, UniProt P01589 22-213); experiment: as above
T2 construct: Bought; not shown: human Fc (hFc) of the commercial protein
T2 sequence (looked up): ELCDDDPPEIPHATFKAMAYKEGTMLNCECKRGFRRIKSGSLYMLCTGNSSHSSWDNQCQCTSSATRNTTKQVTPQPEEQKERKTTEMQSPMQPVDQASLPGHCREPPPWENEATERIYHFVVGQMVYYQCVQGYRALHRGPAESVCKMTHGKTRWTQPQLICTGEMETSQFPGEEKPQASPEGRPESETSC
Procedure: as §1, §2

B1: Mab 2D11 (antibody, V domains shown)
VH: QVQLQQPGAELVKPGASVKMSCKASDYTFTSNWMHWVKQRPGQGLEWIGTIDPSDSYTYYNQKFKGKATLTVDTSSSTAYMHLSSLTSEDSAVYYCTTSGDYDADRYFDVWGAGTTVTVSS
VL: DIVLTQSPASLGVSLGQRATISCRASKSVSTSGDSYMHWYQQKPGQSPKLLIYLASNLESGVPARFSGSGSGTDFTLNIHPVEEEDAATYYCQQSRELPLSFGAGTKLELK
notes: Monoclonal antibody from immunized NMRI mice; detected with anti-mouse IgG1-PE / anti-mouse IgG; also called F20.2D11
B1 was tested, and the “absorbance at 370 nm (corrected for the control without antibody)” value [1] was 0.02 and the “absorbance at 370 nm (corrected for the control without antibody)” value [2] was 0.02.
